Measured values taken from patent US6897054.

B1: huCdc7 (protein)
chain: MEASLGIQMDEPMAFSPQRDRFQAEGSLKKNEQNFKLAGVKKDIEKLYEAVPQLSNVFKIEDKIGEGTFSSVYLATAQLQVGPEEKIALKHLIPTSHPIRIAAELQCLTVAGGQDNVMGVKYCFRKNDHVVIAMPYLEHESFLDILNSLSFQEVREYMLNLFKALKRIHQFGIVHRDVKPSNFLYNRRLKKYALVDFGLAQGTHDTKIELLKFVQSEAQQERCSQNKSHIITGNKIPLSGPVPKELDQQSTTKASVKRPYTNAQIQIKQGKDGKEGSVGLSVQRSVFGERNFNIHSSISHESPAVKLMKQSKTVDVLSRKLATKKKAISTKVMNSAVMRKTASSCPASLTCDCYATDKVCSICLSRRQQVAPRAGTPGFRAPEVLTKCPNQTTAIDMWSAGVIFLSLLSGRYPFYKASDDLTALAQIMTIRGSRETIQAAKTFGKSILCSKEVPAQDLRKLCERLRGMDSSTPKLTSDIQGHASHQPAISEKTDHKASCLVQTPPGQYSGNSFKKGDSNSCEHCFDEYNTNLEGWNEVPDEAYDLLDKLLDLNPASRITAEEALLHPFFKDMSL
B2: H37 deletion derivative ΔC fused to Gal4 activation domain (protein, not shown: large carriers)
chain: MNSGAMRIHSKGHFQGGIQVKNEKNRPSLKSLKTDNRPEKSKCKPLWGKVFYLDLPSVTISEKLQKDIKDLGGRVEEFLSKDISYLISNKKEAKFAQTLGRISPVPSPESAYTAETTSPHPSHDGSSFKSPDTVCLSRGKLLVEKAIKDHDFIPSNSILSNALSWGVKILHIDDIRYYIEQKKKELYLLKKSSTSVRDGGKRVGSGAQKTRTGRLKKPFVKVEDMSQLYRPFYLQLTNMPFINYSIQKPCSPFDVDKPSSMQKQTQVKLRIQTDGDKYGGTSIQLQLKEKKKKGYCECCLQKYEDLETHLLSEQHRNFAQSNQYQVVDDIVSKLVFDFVEYEKDTPKKKRIKYSVGSLSPVSASVLKKTEQKEKVELQHISQKDCQEDDTTVKEQNFLYKETQETEKKLLFISEPIPHPSNELRGLNEKMSNKCSMLSTAEDDIRQNFTQLPLHKNKQECILDISEHTLSENDLEELRVDHYKCNIQASVHVSDFSTDNSGSQPKQKSDTVLFPAKDLKEKDLHSIFTHDSGLITINSSQEHLTVQAKAPFHTPPEEPNECDFKNMDSLPSGKIHRKVKIILGRNRKENLEPNAEFDKRTEFITQEENRICSSPVQSLLDLFQTSEEKSEFLGFTSYTEKSGICNVLDIWEEEN

How the values were obtained:
myc-tagged H37 protein = target: T1, myc-tagged H37 protein
T1 chain: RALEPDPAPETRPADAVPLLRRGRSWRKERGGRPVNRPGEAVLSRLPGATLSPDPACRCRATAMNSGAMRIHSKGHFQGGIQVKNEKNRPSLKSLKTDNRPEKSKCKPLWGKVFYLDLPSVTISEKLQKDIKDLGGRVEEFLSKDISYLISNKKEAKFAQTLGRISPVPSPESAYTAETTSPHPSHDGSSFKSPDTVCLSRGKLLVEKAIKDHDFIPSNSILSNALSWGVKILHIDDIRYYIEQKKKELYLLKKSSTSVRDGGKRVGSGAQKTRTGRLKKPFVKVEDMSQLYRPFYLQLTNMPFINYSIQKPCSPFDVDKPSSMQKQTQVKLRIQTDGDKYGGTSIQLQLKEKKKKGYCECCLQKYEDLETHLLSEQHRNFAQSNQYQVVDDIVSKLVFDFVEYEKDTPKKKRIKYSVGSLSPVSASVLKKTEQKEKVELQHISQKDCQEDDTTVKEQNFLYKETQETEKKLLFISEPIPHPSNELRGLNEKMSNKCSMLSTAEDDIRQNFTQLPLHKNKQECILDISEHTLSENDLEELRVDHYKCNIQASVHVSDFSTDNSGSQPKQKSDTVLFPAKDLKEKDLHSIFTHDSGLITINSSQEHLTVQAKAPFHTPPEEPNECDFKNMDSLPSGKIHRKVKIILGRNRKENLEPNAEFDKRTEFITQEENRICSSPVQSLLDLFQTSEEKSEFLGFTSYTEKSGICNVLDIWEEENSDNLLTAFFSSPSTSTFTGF

[1] = target: huCdc7 fused to DNA-binding domain of Gal4 (human); test: yeast two-hybrid assay, lacZ activity

Row | Binder | in vitro kinase reaction of huCdc7/H37 immunoprecipitates with GST-MCM3 fusion protein as substrate (myc-tagged H37 protein) | binding ability with huCdc7 relative to full-length H37 [1] [%]
1 | B1 | phosphorylation in a good efficiency was observed for the MCM3 protein in both immunoprecipitate of anti-huCdc7 antibody and immunoprecipitate of anti-myc antibody | 
2 | B2 |  | 60
